Assay results taken from PMC8205527, “Structural basis for the coiled-coil architecture of human CtIP” (Open Biology, 2021).

Molecular target: the molecule itself
Assay: SEC-SAXS; Superdex 200 Increase 3.2/300 in 20 mM Tris HCl 8.0, 300 mM NaCl; protein at 3–10 mg/ml; Guinier analysis, P(r), MONSA and BilboMD modelling

B1: CtIP-NTD (18–145) (domain or fragment, human, UniProt Q99708 18-145, looked up)
chain: SDFKDLWTKLKECHDREVQGLQVKVTKLKQERILDAQRLEEFFTKNQQLREQQKVLHETIKVLEDRLRAGLCDRCAVTEEHMRKKQQEFENIRQQNLKLITELMNERNTLQEENKKLSEQLQQKIEND
notes: also called CtIP N-terminal domain; source: E. coli BL21(DE3) Rosetta 2, purified (Ni-NTA, TEV cleavage, Strep-Tactin, SEC); not shown: His6, N-terminal, cleaved; MBP, N-terminal, cleaved
Q: Which “stoichiometry N” value does the source give for B1 here?
A: 4

B2: CtIP-cNTD 31–145 (wild type) (domain or fragment, human, UniProt Q99708 31-145, looked up)
chain: HDREVQGLQVKVTKLKQERILDAQRLEEFFTKNQQLREQQKVLHETIKVLEDRLRAGLCDRCAVTEEHMRKKQQEFENIRQQNLKLITELMNERNTLQEENKKLSEQLQQKIEND
notes: also called wild-type CtIP-cNTD; C-terminal NTD; source: E. coli BL21(DE3) Rosetta 2, purified (Ni-NTA, TEV cleavage, Strep-Tactin, SEC); not shown: His6, N-terminal, cleaved; MBP, N-terminal, cleaved
Q: How did the “stoichiometry N” value turn out when B2 was run?
A: 2
